In assay [1] the test system is E. coli SV6 groEL673. Put plainly: In vivo complementation of ts groEL673 at 43° C. It is filed as cell-based. The conditions noted are these: for Relative colony forming ability, SV6 groEL673: plasmids pJC, relative to growth at 30° C. As to the method: (§1) In vivo Complementation Experiments.
(§2) Complementation experiments were performed by transforming electro-competent SV2 or SV6 cells with the pJC series of expression vectors and plating an aliquot of the transformation reactions directly at 43° C. The percentage of viable cells relative to the growth at 30° C. was determined. A representative number of clones which grew at 43° C. were incubated in absence of any selective markers at permissive temperature. After prolonged growth the loss of the pJC plasmids and the ts phenotype were verified. Each experiment was performed in duplicate. Plasmids carrying no groE genes or encoding the GroE proteins were used as negative or positive controls, respectively.

The subject of assay [2] is bacteriophage λ. The assay can be described thus: Growth of bacteriophage λ in transformed groEL strains. The conditions noted are these: for Effect of over-expression on λ growth / plaque counts: SV1 (groE^+); for Growth of bacteriophage λ, SV1 (groEL^+) / Growth of bacteriophage λ, SV2 groEL44 / Growth of bacteriophage λ, SV3 GroEL59 / Growth of bacteriophage λ, SV6 groEL673: 30° C. It is filed as cell-based, bacteriophage λ (b2cI) in E. coli. On the set-up: key to Growth of bacteriophage λ, SV1 (groEL^+) / Growth of bacteriophage λ, SV2 groEL44: +++: normal plaque-forming ability relative to wild-type groEL^+ strain, in terms of both number and size; ++: 5-fold fewer plaques relative to wild-type groEL^+ strain, or both; 10-fold fewer plaques, or plaque size reduced relative to wild-type groEL^+ strain, or both; +/−: 10^2-fold fewer plaques and plaque size reduced relative to wild-type groEL^+ strain; no visible plaques (<10^−4). From the text:
(§3) The E. Coli strains used in this study were: C41(DE3), a mutant of BL21(DE3) capable of expressing toxic genes (Miroux, B. & Walker, J. E. (1996) J. Mol. Biol. 260, 289-298); SV2 (B178groEL44), SV3 (B178groEL59) and SV6 (B178groEL673): isogenic strains carrying temperature-sensitive alleles of groEL; SV1(=B178) (Georgopoulos, C., Hendrix, R. W., Casjens, S. R. & Kaiser, A. D. (1973) J. Mol. Biol. 76, 45-60), A190 (ΔgroEL::kan^R) [pBAD-EL] (Ivic, A., Olden, D., Wallington, E. J. & Lund, P. A. (1997) Gene 194, 1-8), and TG1 (Gibson, T. J. (1984) Ph.D. thesis, University of Cambridge, U.K). Bacteriophage λb2cI (Zeilstra-Ryalls, J., Fayet, O., Baird, L. & Georgopoulos, C. (1993) J. Bacteriol. 175, 1134-1143) was used according to standard methods (Arber, W., Enquist, L., Hohn, B., Murray, N. E. & Murray, K. (1983) in Lambda II., ed. R. W. Hendrix, J. W. r., F. W. Stahl and R. A. Weisberg (Cold Spring Harbor Laboratory, Cold Spring Harbor, N.Y.), pp. 433-466); plaque formation was assayed at 30° C. T4D0, a derivative of bacteriophage T4 (Zeilstra-Ryalls, J., Fayet, O., Baird, L. & Georgopoulos, C. (1993) J. Bacteriol. 175, 1134-1143), was used according to standard methods (Karam, J. D. (1994) Molecular biology of bacteriophage T4. (American Society for Microbiology, Washington, D.C.)); plaque formation was assayed at 37° C.

In assay [3] the test system is E. coli SV2 groEL44. Put plainly: In vivo complementation of ts groEL44 at 43° C. Type of assay: cell-based. The settings on record: for Relative colony forming ability, SV2 groEL44: plasmids pJC, relative to growth at 30° C. As to the method: as §1, §2
In assay [4] the test system is mutant Huntingdon exon 1-expressing PC12 and SH-SY5Y cells. Put plainly: Inclusion formation and cell death, mutant Huntingdon exon 1. Type of assay: cell-based. The settings on record: overexpression. The text has this: These phenomena have been studied by transiently transfecting part of Huntingdon exon 1 in COS-7, PC12, and SH-SY5Y cells. Inclusion formation was not seen with constructs expressing 23 glutamines but was repeat length and time dependent for mutant constructs with 43-74 repeats. HSP70, HSP40, the 20S proteasome and ubiquitin colocalized with inclusions. […] Thus, inclusion formation may be enhanced in polyglutamine diseases, if the pathological process results in proteasome inhibition or a heat-shock response. […] To our knowledge, this is the first report of an HSP increasing aggregation of an abnormally folded protein in mammalian cells and expands the current understanding of the roles of HDJ-2yHSDJ in protein folding (See Wyttenbach, A. et al. (2000) Proc. Natl. Acad. Sci. USA 97, 2899-2903).
We have tested MC72 in the same system.

The test system of assay [5] is AI90 (ΔgroEL::kan^R) [pBADEL] E. coli strain. The assay can be described thus: Plating ability of AI90 on GroEL depletion at 37° C. Type of assay: cell-based. On the set-up: key to Plating ability, 0.00 % L(+)arabinose: +++: growth identical to that in presence of 0.2% L(+)arabinose (100%), in terms of both number and size; ++: about 50% of the colonies relative to that in presence of 0.2% L(+)arabinose; +: about 30% of the colonies; +/−: ≦5% of the colonies and size reduced relative to that in presence of 0.2% L(+)arabinose; −: no visible colonies. The procedure: AI90 (ΔgroEL::kan^R) [pBAD-EL] cells were transformed with the pJC vector series. Transformants were selected at 37° C. on LB supplemented with 50 μg.ml^−1 of kanamycin, 120 μg.mL^−1 of ampicillin, 25 μg.mL^−1 of chloramphenicol and 0.2% L(+)arabinose. Depletion of GroEL protein was analysed at 37° C. by plating the same quantity of AI90 [PBAD-EL+pJC vectors] cells on LB plates containing 1% D(+)glucose or various amount of arabinose.
Each experiment was performed in triplicate. Plasmids carrying no groE genes or encoding the GroE proteins were used as negative or positive controls, respectively.

The subject of assay [6] is bacteriophage T4. Put plainly: Growth of bacteriophage T4 in transformed groEL strains. It is filed as cell-based, bacteriophage T4 (T4D0) in E. coli. Also noted: key to Growth of bacteriophage T4, SV1 (groEL^+) / Growth of bacteriophage T4, SV2 groEL44 / Growth of bacteriophage T4, SV3 GroEL59 / Growth of bacteriophage T4, SV6 groEL673: +++: normal plaque-forming ability relative to wild-type groEL^+ strain, in terms of both number and size; ++: 5-fold fewer plaques relative to wild-type groEL^+ strain, or both; 10-fold fewer plaques, or plaque size reduced relative to wild-type groEL^+ strain, or both; +/−: 10^2-fold fewer plaques and plaque size reduced relative to wild-type groEL^+ strain; no visible plaques (<10^−4). The settings on record: for Growth of bacteriophage T4, SV1 (groEL^+) / Growth of bacteriophage T4, SV2 groEL44 / Growth of bacteriophage T4, SV3 GroEL59 / Growth of bacteriophage T4, SV6 groEL673: 37° C.
From the text: as §3

For assay [7], the system named is mutant Huntingdon exon 1-expressing PC12 and SH-SY5Y cells. The conditions noted are these: overexpression; cited from earlier work.

Where two headings read alike, the source gives them in different places.

On to “GroES-EL: plasmid encoding the GroE proteins GroES and GroEL, positive control”, for which, in assay [1], the “Relative colony forming ability, SV6 groEL673” value was found to be 1. Also, the “Effect of over-expression on λ growth / plaque counts” value in assay [2] was “four-fold drop in plaques”. The “Relative colony forming ability, SV2 groEL44” value in assay [3] is 1.
As to yeast Hsp104: yeast chaperone Hsp104, in assay [4], the cell death entry is “reduced” and the inclusion formation result is given as “reduced inclusion formation”.

B1: sht-GroEL(193-335): short histidine tail minichaperone, GroEL residues 193-335 (protein, UniProt P0A6F5 193-335, looked up, fragment)
chain: MQFDRGYLSPYFINKPETGAVELESPFILLADKKISNIREMLPVLEAVAKAGKPLLIIAEDVEGEALATLVVNTMRGIVKVAAVKAPGFGDRRKAMLQDIATLTGGTVISEEIGMELEKATLEDLGQAKRVVINKDTTTIIDG
modifications: short His tag
For B1, in assay [1], the “Complementation of the groEL673 defect in SV6” value was “less well” and the “Relative colony forming ability, SV6 groEL673” value is reported as 0.03-0.05. Besides, in assay [3], the “Complementation of the groEL44 defect in SV2” value is listed as “complements the defect in SV2” and the “Relative colony forming ability, SV2 groEL44” value is reported as 0.05-0.09.

B2: sht-GroEL(191-376): histidine-tagged (short histidine tail; sht) minichaperone GroEL(191-376) (protein, UniProt P0A6F5 191-376, looked up, fragment)
chain: EGMQFDRGYLSPYFINKPETGAVELESPFILLADKKISNIREMLPVLEAVAKAGKPLLIIAEDVEGEALATLVVNTMRGIVKVAAVKAPGFGDRRKAMLQDIATLTGGTVISEEIGMELEKATLEDLGQAKRVVINKDTTTIIDGVGEEAAIQGRVAQIRQQIEEATSDYDREKLQERVAKLAGGV
modifications: short His tag
As for B2, the “Plating ability, 0.00 % L(+)arabinose” value in assay [5] (0.00% arabinose) is recorded as “−”. Besides, in assay [5] (0.01% arabinose), the “Plating ability, 0.01 % L(+)arabinose” value was “+/− (≦5% of the colonies and size reduced relative to that in presence of 0.2% L(+)arabinose)”. For the same molecule, in assay [5] (0.10% arabinose), the “Plating ability, 0.10 % L(+)arabinose” value was “+ (about 30% of the colonies)”. Besides, the “Plating ability, 0.15 % L(+)arabinose” value in assay [5] (0.15% arabinose) was “++ (about 50% of the colonies relative to that in presence of 0.2% L(+)arabinose)”. Further, in assay [1], the “Relative colony forming ability, SV6 groEL673” value is on record as <10^−4. Further, in assay [2], the “Growth of bacteriophage λ, SV1 (groEL^+)” value is listed as “+++”; the “Growth of bacteriophage λ, SV2 groEL44” value is on record as “− (no visible plaques (<10^−4))”; the “Growth of bacteriophage λ, SV3 GroEL59” value was “− (no visible plaques (<10^−4))”; the “Growth of bacteriophage λ, SV6 groEL673” value is “− (no visible plaques (<10^−4))”. For the same molecule, in assay [6], the “Growth of bacteriophage T4, SV1 (groEL^+)” value is listed as “+++”; the “Growth of bacteriophage T4, SV2 groEL44” value is “− (no visible plaques (<10^−4))”; the “Growth of bacteriophage T4, SV3 GroEL59” value is on record as “+++”; the “Growth of bacteriophage T4, SV6 groEL673” value is given as “− (no visible plaques (<10^−4))”. Besides, in assay [3], the “Relative colony forming ability, SV2 groEL44” value is given as <10^−4.

B3: sht-GroEL(191-345): short histidine tail minichaperone, GroEL residues 191-345 (protein, UniProt P0A6F5 191-345, looked up, fragment)
chain: EGMQFDRGYLSPYFINKPETGAVELESPFILLADKKISNIREMLPVLEAVAKAGKPLLIIAEDVEGEALATLVVNTMRGIVKVAAVKAPGFGDRRKAMLQDIATLTGGTVISEEIGMELEKATLEDLGQAKRVVINKDTTTIIDGVGEEAAIQGR
modifications: short His tag
As for B3, in assay [1], the “Complementation of the groEL673 defect in SV6” value is reported as “complemented” and the “Relative colony forming ability, SV6 groEL673” value is recorded as 0.07-0.09. Further, the “Relative colony forming ability, SV2 groEL44” value in assay [3] is recorded as 0.01-0.02.

B4: GroEL(191-345): GroEL(191-345) minichaperone monomer (protein, UniProt P0A6F5 191-345, looked up, fragment)
chain: EGMQFDRGYLSPYFINKPETGAVELESPFILLADKKISNIREMLPVLEAVAKAGKPLLIIAEDVEGEALATLVVNTMRGIVKVAAVKAPGFGDRRKAMLQDIATLTGGTVISEEIGMELEKATLEDLGQAKRVVINKDTTTIIDGVGEEAAIQGR
modifications: apical domain
notes: GroEL(191-345) minichaperone monomer
With B4, in assay [7], the cell death result was “reduced cell death” and the “proportion of cells with inclusions / inclusion formation” value was “reduced slightly but significantly”.

B5: GroES(1-97): co-chaperone of GroEL, seven membered ring of 10 kD subunits (protein, UniProt P0A6F9 1-97, looked up)
Co-chaperonin GroES: MNIRPLHDRVIVKRKEVETKSAGGIVLTGSAAAKSTRGEVLAVGNGRILENGEVKPLDVKVGDIVIFNDGYGVKSEKIDNEEVLIMSESDILAIVEA
Regarding B5, in assay [1], the “Relative colony forming ability, SV6 groEL673” value is listed as <10^−4. For the same molecule, in assay [2], the “Complementation of groEL mutant strains for bacteriophage λ growth” value is recorded as “allele-specific complementation”; the “Growth of bacteriophage λ, SV1 (groEL^+)” value is reported as “+++”; the “Growth of bacteriophage λ, SV2 groEL44” value is on record as “+++”; the “Growth of bacteriophage λ, SV3 GroEL59” value is on record as “− (no visible plaques (<10^−4))”. Further, in assay [2], the “Growth of bacteriophage λ, SV6 groEL673” value is reported as “− (no visible plaques (<10^−4))” and the “Effect of over-expression on λ growth / plaque counts” value is reported as “no effect”. In assay [6], the “Growth of bacteriophage T4, SV1 (groEL^+)” value is “+++”; the “Growth of bacteriophage T4, SV2 groEL44” value was “+++”; the “Growth of bacteriophage T4, SV3 GroEL59” value is “+++”; the “Growth of bacteriophage T4, SV6 groEL673” value is reported as “− (no visible plaques (<10^−4))”. In addition, the “Effect of over-expression on bacteriophage T4 growth in groEL strains” value in assay [6] (groEL strains) is listed as “allele-specific complementation”. Moreover, the “Relative colony forming ability, SV2 groEL44” value in assay [3] is reported as 5 × 10^−3.

(Values after patent publication US20020193564A1, “Oligomeric chaperone proteins” (priority 1999, published 2002).)
